Assay results: article PMC3768570 (Brazilian Journal of Microbiology, 2009)

What was measured:
[1] = biological target: T1, phytase from Aspergillus niger 11T53A9 (Aspergillus niger, UniProt P34752); experiment: biochemical
T1 sequence (P34752 24-467): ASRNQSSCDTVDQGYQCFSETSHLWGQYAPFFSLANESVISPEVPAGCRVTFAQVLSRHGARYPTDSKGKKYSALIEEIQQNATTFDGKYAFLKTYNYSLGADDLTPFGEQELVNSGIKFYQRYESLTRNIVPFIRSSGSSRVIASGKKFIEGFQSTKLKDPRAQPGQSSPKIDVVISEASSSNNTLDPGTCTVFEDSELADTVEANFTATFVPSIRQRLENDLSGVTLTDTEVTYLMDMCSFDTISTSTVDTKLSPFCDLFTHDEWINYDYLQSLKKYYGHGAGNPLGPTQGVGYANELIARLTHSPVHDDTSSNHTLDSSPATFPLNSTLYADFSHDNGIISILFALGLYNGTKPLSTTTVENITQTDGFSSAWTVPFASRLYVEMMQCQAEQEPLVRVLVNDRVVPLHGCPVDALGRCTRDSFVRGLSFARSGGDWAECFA

[2] = tested on: Saccharomyces cerevisiae phytase; experiment: phosphate release, ammonium molybdate, Lineweaver-Burk; assay type: biochemical; conditions: pH 5.0, 37°C, 100 mM sodium acetate; InsP3 prepared with S. cerevisiae phytase
[3] = substrate: O=P(O)(O)Oc1ccccc1; experiment: purified protein; conditions: pH 5.0, 37°C, 100 mM sodium acetate
[4] = substrate: O=P(O)(O)Oc1cccc2ccccc12; experiment: purified protein; conditions: pH 5.0, 37°C, 100 mM sodium acetate
[5] = substrate: O=P(O)(O)O[C@H]1[C@H](OP(=O)(O)O)[C@@H](OP(=O)(O)O)[C@H](OP(=O)(O)O)[C@@H](OP(=O)(O)O)[C@H]1OP(=O)(O)O; experiment: purified protein; conditions: pH 5.0, 37°C, 100 mM sodium acetate
[6] = substrate: O=P(O)(O)O[C@H]1O[C@H](CO)[C@@H](O)[C@H](O)[C@H]1O; experiment: purified protein; conditions: pH 5.0, 37°C, 100 mM sodium acetate
[7] = substrate: O=[N+]([O-])c1ccc(OP(=O)(O)O)cc1; experiment: purified protein; conditions: pH 5.0, 37°C, 100 mM sodium acetate
[8] = substrate: Nc1ncnc2c1ncn2[C@@H]1O[C@H](COP(=O)(O)O)[C@@H](O)[C@H]1O; experiment: purified protein; conditions: pH 5.0, 37°C, 100 mM sodium acetate
[9] = substrate: Nc1ncnc2c1ncn2[C@@H]1O[C@H](COP(=O)(O)OP(=O)(O)OP(=O)(O)O)[C@@H](O)[C@H]1O; experiment: purified protein; conditions: pH 5.0, 37°C, 100 mM sodium acetate
[10] = substrate: O=P(O)(O)OC(CO)CO; experiment: purified protein; conditions: pH 5.0, 37°C, 100 mM sodium acetate
[11] = substrate: Nc1ncnc2c1ncn2[C@@H]1O[C@H](COP(=O)(O)OP(=O)(O)O)[C@@H](O)[C@H]1O; experiment: purified protein; conditions: pH 5.0, 37°C, 100 mM sodium acetate
[12] = substrate: O=P(O)(O)Oc1ccc2ccccc2c1; experiment: purified protein; conditions: pH 5.0, 37°C, 100 mM sodium acetate

`F` [Fluoride] gave a Ki [1] of 158 µM.

`O=P(O)(O)O[C@@H]1[C@H](OP(=O)(O)O)[C@H](O)[C@@H](O)[C@H](O)[C@H]1OP(=O)(O)O` [D-Ins(1,2,6)P3] showed a Km [2] of 293 ± 12 µM.

B1: phytase from Aspergillus niger 11T53A9 (Aspergillus niger) (protein)
chain: T1 sequence (P34752 24-467)
Work on B1 yielded a Km [3] of 177 ± 1.3 µM, a kcat [3] of 36 s⁻¹ and a kcat/Km [3] of 203000 M⁻¹ s⁻¹. It also gave a Km [4] of 247 ± 6.7 µM, a kcat [4] of 23 ± 1.5 s⁻¹ and a kcat/Km [4] of 93100 M⁻¹ s⁻¹. It also gave a Km [5] of 54 ± 1.4 µM, a kcat [5] of 190 ± 4.3 s⁻¹ and a kcat/Km [5] of 3.52e+06 M⁻¹ s⁻¹. The Km [6] was 741 ± 6.4 µM, the kcat [6] was 6 ± 0.4 s⁻¹ and the kcat/Km [6] was 8100 M⁻¹ s⁻¹. It also gave a Km [7] of 124 ± 3.9 µM, a kcat [7] of 35 ± 0.9 s⁻¹ and a kcat/Km [7] of 282000 M⁻¹ s⁻¹. It also gave a Km [8] of 497 ± 8.2 µM, a kcat [8] of 11 ± 1.1 s⁻¹ and a kcat/Km [8] of 22100 M⁻¹ s⁻¹. It also gave a Km [9] of 587 ± 6.5 µM, a kcat [9] of 8 s⁻¹ and a kcat/Km [9] of 13600 M⁻¹ s⁻¹. It also gave a Km [10] of 521 ± 9.1 µM, a kcat [10] of 9 ± 0.3 s⁻¹ and a kcat/Km [10] of 17300 M⁻¹ s⁻¹. The Km [11] was 534 ± 7.9 µM, the kcat [11] was 12 ± 0.9 s⁻¹ and the kcat/Km [11] was 22500 M⁻¹ s⁻¹. It also gave a Km [12] of 276 ± 7.1 µM, a kcat [12] of 22 s⁻¹ and a kcat/Km [12] of 79700 M⁻¹ s⁻¹.
